US20240254222A1 (Bayer, published 2024)
Changes are numbered by the printed parent chain.

T1: Human Semaphorin3A-Sema Domain, TPP-19068 (human, UniProt Q14563 21-569)
T1 construct: produced inhouse in HEK293-6E; also called human monovalent Sema3A domain
T1 sequence: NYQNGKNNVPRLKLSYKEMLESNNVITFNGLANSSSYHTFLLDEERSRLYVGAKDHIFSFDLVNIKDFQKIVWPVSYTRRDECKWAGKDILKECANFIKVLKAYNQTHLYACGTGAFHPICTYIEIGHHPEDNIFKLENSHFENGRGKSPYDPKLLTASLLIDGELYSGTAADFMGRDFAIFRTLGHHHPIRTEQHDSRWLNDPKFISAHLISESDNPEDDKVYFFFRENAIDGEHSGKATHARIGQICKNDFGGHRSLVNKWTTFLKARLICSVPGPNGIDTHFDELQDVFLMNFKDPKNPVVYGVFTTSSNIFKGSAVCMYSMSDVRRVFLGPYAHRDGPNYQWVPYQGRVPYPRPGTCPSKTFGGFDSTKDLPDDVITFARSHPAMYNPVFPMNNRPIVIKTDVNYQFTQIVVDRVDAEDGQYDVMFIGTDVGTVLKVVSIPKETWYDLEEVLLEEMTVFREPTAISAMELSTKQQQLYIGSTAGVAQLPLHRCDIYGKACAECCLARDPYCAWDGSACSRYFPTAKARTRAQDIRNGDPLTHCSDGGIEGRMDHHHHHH

T2: Sema3D (R&D Systems) (Homo sapiens (Human), UniProt O95025 37-777)
T2 sequence: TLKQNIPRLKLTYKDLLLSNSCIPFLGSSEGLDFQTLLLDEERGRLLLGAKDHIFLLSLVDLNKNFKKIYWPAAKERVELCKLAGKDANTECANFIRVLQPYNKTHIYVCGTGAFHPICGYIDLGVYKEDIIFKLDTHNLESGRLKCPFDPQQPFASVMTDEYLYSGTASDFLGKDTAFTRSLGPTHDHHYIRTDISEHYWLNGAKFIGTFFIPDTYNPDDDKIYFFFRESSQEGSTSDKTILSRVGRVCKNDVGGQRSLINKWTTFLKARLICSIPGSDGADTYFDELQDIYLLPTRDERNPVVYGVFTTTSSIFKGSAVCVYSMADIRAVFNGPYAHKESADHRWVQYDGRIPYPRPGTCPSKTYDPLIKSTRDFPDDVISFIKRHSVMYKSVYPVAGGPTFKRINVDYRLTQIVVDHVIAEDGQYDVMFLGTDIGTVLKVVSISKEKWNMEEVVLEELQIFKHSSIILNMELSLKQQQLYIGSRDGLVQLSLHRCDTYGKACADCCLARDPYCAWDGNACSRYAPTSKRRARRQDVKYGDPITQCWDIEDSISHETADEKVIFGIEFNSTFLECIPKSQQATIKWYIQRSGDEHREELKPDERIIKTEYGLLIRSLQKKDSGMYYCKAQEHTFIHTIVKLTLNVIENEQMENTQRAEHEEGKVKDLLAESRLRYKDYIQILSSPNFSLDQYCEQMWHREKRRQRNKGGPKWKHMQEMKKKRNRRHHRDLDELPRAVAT

T3: Mouse Semaphorin3A-Fc (R&D Systems), TPP-13357 (mouse, UniProt O08665 21-747)
T3 construct: range 21-747; R&D Systems 5926-S3; also called mouse Sema3A-Fc
T3 sequence (looked up): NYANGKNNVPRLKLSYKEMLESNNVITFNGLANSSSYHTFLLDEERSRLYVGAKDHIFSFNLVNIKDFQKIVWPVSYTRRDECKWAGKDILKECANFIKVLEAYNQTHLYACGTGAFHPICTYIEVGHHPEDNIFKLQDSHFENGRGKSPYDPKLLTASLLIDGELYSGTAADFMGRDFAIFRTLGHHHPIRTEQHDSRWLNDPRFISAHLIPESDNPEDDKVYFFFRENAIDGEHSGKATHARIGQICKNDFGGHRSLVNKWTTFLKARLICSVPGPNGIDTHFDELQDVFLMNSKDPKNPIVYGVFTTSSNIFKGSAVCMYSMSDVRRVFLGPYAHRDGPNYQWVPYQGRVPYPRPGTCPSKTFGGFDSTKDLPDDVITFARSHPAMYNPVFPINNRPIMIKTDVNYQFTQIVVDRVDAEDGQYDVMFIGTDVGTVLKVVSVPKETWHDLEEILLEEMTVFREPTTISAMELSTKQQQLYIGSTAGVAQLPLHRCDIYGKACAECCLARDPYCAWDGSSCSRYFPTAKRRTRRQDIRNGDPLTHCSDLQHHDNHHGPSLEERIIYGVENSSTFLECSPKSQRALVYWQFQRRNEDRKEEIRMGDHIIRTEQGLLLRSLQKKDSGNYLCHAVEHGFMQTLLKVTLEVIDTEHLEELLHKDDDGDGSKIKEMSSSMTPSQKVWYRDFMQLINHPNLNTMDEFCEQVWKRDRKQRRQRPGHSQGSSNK

B1: TPP-30788 (antibody, human IgG1, kappa, V domains shown)
VH: EVQLVESGGGLVQPGGSLRLSCAASGFTFSSYYMSWVRQAPGKGLEWVSTIIKSGGYAYYPDSVKDRFTISRDNSKNTLYLQMSSLRAEDTAVYYCVRGGQGAMDYWGQGTTVTVSS
VL: EIVLTQSPATLSLSPGERATLSCRASQSIGDYLHWYQQKPGQAPRLLIKYASQSISGIPARFSGSGSGTDFTLTITSLEPEDFAVYYCQQGYSFPYTFGGGTKLEIKR
notes: prior art, WO 2020/225400; also called BI clone I; Böhringer (BI) Clone I
B2: TPP-15374 (antibody, human IgG1, lambda, V domains shown)
VH: EVQLLESGGGLVQPGGSLRLSCAASGFTFSSYEMNWVRQAPGKGLEWVSGISWNSGSIGYADSVKGRFTISRDNSKNTLYLQMNSLRAEDTAVYYCARSGYSSSWFDPDFDYWGQGTLVTVSS
VL: QSVLTQPPSASGTPGQRVTISCTGSSSNIGAGYDVHWYQQLPGTAPKLLIYGNSNRPSGVPDRFSGSKSGTSASLAISGLRSEDEADYYCSSYAGSNPYVVFGGGTKLTVLG
notes: human IgG1; also called IgG1, hit from panning; parental mAb
B3: TPP-17755 (antibody, human IgG1, lambda, V domains shown)
VH: EVQLLESGGGLVQTGGSLRLSCAASGFTFSDYAMSWVRQAPGKGLEWVSWIYYDSGSKYYADSVKGRFTISRDNSKNTLYLQMNSLRAEDTAVYYCAKLNGDFDYWGQGTLVTVSS
VL: QSVLTQPPSASGTPGQRVTISCSGSSSNIGNNDVSWYQQLPGTAPKLLIYADSHRPSGVPDRFSGSKSGTSASLAISGLRSEDEADYYCGAWDSSLSGYVFGGGTKLTVLG
notes: also called Samsung; Samsung Prior Art F11
B4: TPP-23298 (antibody, human IgG4 S228P, lambda, V domains shown)
VH: EVQLLESGGGLVQPGGSLRLSCAASGFTFYSYAMSWVRQAPGKGLEWVSAIGTGGDTYYADSVKGRFTISRDNSKNTLYLQMNSLRAEDTAVYYCARRDDYTSRDAFDYWGQGTLVTVSS
VL: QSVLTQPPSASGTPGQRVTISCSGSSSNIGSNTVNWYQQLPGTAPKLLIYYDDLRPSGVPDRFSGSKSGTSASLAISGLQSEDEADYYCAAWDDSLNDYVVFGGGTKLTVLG
B5: TPP-15370 (antibody, human IgG1, lambda, V domains shown)
VH: B4 VH with Y30S, A33G, S35H, K64M, Y109V
VL: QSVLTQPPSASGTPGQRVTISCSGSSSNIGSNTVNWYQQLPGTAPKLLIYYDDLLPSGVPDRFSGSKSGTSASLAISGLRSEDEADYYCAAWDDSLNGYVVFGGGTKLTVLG
notes: as for B2

Assays:
[1] = target: T1, Human Semaphorin3A-Sema Domain, …; experiment: SPR, 100 nM TPP-19068, binding experiment
Experimental: (§1) To assess the binding kinetics and affinity of anti-Sema3A antibodies as well as their species cross-reactivity profile, binding assays were conducted using surface plasmon resonance (SPR). Binding assays were performed on a Biacore T200 instrument or on a Biacore 8K+ instrument (Cytiva) at 25° C. using assay buffer HBS P+, 300 mM NaCl, 0.75 mM CaCl₂, 2.5 mM MgCl₂, 1 mg/ml BSA, 0.05% NaN₃. Antibodies were captured either via anti-human Fc IgGs (“Human antibody capture kit”, Order No. BR100839, Cytiva) or in case of Fc-tagged analytes by anti-human Fab IgGs (“Human Fab capture kit”, Order No. 28958325, Cytiva) covalently amine coupled to a Series S CM5 sensor chip (Cytiva). The amine coupling was carried out according to the manufacturer's instructions using 1-ethyl-3-(3-dimethylaminopropyl) carbodiimide hydrochloride (EDC), N-hydroxysuccinimide (NHS) and ethanolamine HCl, pH 8.5 (“Amine Coupling Kit” BR-1000-50, Cytiva.). For phage display hits Fc-tagged human and mouse Sema3A was used as analytes in a concentration range from 1.56-200 nM. Human, mouse, cynomolgus, rat, dog and pig monovalent Sema3A domain were used as analytes in a concentration series from […] in multi cycle kinetics mode or in 100 nM for binding analysis only. The sensor surface was regenerated with glycine pH 2.0 after each antigen injection. Obtained sensorgrams were double referenced (subtraction of reference flow cell signal and buffer injection) and were fitted to a 1:1 Langmuir binding model to derive kinetic data using the Biacore T200 Evaluation software.

[2] = target: T2, Sema3D (R&D Systems); experiment: ELISA
[3] = target: T4, Human Semaphorin3A-Fc (R&D Systems), TPP-13211 (human); experiment: SPR, captured IgG1, Sema3A-Fc analyte
T4 construct: R&D Systems 1250-S3; also called recombinant human Sema3A-Fc chimera
T4 sequence (chain, as listed by the source limits assumed): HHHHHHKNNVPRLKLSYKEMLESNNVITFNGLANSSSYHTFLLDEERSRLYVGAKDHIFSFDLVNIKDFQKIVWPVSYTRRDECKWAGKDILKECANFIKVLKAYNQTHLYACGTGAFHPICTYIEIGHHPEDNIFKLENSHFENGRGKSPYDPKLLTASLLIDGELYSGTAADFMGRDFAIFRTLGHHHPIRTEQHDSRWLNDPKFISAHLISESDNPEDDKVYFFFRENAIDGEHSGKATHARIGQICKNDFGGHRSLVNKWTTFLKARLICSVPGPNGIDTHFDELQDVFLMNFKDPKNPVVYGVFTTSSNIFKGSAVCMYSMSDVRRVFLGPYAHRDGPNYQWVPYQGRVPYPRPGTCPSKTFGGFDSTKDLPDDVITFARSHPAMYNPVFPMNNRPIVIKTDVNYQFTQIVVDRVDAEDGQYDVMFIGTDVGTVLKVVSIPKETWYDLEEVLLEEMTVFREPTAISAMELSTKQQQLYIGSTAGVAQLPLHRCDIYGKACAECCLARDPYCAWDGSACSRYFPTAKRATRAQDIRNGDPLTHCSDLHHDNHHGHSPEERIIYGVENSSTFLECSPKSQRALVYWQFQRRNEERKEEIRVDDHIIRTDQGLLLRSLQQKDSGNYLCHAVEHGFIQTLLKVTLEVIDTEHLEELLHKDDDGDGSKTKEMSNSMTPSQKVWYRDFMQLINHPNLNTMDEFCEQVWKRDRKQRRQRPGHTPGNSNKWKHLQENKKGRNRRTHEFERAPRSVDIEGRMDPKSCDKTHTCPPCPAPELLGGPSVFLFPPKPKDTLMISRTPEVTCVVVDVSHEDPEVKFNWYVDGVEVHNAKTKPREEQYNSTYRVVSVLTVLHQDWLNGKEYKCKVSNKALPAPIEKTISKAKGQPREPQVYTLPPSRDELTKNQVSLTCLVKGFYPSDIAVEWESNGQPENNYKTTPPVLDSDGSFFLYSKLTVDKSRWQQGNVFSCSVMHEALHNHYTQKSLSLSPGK
Experimental: as §1

[4] = target: T3, Mouse Semaphorin3A-Fc (R&D Systems), …; experiment: SPR, captured IgG1, Sema3A-Fc analyte
Experimental: as §1

Binder	Kd [1] [nM]	binding result [2]	Kd [3] [nM]	Kd [4] [nM]
B1	0.098	–	–	–
B2	–	no binding	18	18
B3	6.2	–	–	–
B4	0.13	–	–	–
B5	–	no binding	2.8	3.2
